Publication PMC10786891, “Massively parallel profiling of RNA-targeting CRISPR-Cas13d”
Where a chain is given by its changes, count along the chain named. In names and notes the source's numbering stands.

T1: EsCas13d, nuclease-dead (Eubacterium siraeum, UniProt B0MS50, R295A;H300A;R849A;H854A)
T1 sequence: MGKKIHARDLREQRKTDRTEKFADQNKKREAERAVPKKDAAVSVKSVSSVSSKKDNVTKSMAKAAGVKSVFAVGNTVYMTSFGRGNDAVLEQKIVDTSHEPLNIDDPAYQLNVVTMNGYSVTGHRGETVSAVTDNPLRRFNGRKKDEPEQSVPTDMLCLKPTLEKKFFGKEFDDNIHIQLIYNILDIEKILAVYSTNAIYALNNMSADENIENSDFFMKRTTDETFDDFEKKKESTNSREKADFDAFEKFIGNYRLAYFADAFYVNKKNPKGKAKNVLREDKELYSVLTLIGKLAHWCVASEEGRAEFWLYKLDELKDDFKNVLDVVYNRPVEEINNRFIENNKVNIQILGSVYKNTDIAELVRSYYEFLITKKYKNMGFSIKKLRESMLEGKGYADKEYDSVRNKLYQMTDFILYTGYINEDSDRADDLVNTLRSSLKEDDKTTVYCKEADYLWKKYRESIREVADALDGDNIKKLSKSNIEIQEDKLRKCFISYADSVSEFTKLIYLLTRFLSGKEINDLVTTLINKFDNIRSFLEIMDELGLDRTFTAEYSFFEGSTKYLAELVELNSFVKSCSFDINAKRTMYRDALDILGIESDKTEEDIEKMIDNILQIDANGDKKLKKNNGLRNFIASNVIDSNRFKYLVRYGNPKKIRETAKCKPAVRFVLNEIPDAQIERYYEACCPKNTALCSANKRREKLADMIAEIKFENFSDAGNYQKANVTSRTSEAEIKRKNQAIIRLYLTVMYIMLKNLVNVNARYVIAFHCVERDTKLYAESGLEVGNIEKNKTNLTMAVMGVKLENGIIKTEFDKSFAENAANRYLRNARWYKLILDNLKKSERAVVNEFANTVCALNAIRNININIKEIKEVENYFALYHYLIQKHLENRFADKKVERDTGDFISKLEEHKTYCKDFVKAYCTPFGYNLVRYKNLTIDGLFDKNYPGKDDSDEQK

B1: target 1 C2U,U10C (mixed)
RNA 1: CACCCGUGCAAAAAUGCAGGGGUCUAAAACUGAGCGGAUAACCUCUCUAUGG
RNA 2: GGGAAUGGAUCCACAUCUACGAAUUCGUACCAUAGAGAGGUCAUCCGCUUACCGAGAUCGGAAGAGCACACGU
B2: target 1 insA 3' of 22,insG 3' of 8 (mixed)
RNA 1: B1 RNA 1
RNA 2: GGGAAUGGAUCCACAUCUACGAAUUCGUACACAUAGAGAGGUUAUGCCGCUCACCGAGAUCGGAAGAGCACACGU
B3: target 1 insG 3' of 22,insU 3' of 20 (mixed)
RNA 1: B1 RNA 1
RNA 2: GGGAAUGGAUCCACAUCUACGAAUUCGUACGCAUUAGAGAGGUUAUCCGCUCACCGAGAUCGGAAGAGCACACGU
B4: target 3 C1A,U8A (mixed)
RNA 1: CACCCGUGCAAAAUUGCAGGGGUCUAAAACGACCUGAAUAUUUCAGAUCAAA
RNA 2: GGGAAUGGAUCCACAUCUACGAAUUCGUUUUUGAUCUGAAAUAAUCAGGUAUGCAGAUCGGAAGAGCACACGU
B5: target 3 U2G,A9C (mixed)
RNA 1: B4 RNA 1
RNA 2: B4 RNA 2 with A43C, A44U, U50G, A51C
B6: target 3 del5,del22 (mixed)
RNA 1: B4 RNA 1
RNA 2: GGGAAUGGAUCCACAUCUACGAAUUCGUUUUGAUCUGAAAUAUUCGGUCUGCAGAUCGGAAGAGCACACGU
B7: target 3 C1U,A5G (mixed)
RNA 1: B4 RNA 1
RNA 2: B4 RNA 2 with A44U, A47G, A51U
B8: target 3 insC 3' of 9,insG 3' of 9 (mixed)
RNA 1: B4 RNA 1
RNA 2: GGGAAUGGAUCCACAUCUACGAAUUCGUUUUUGAUCUGAAAUACGUUCAGGUCUGCAGAUCGGAAGAGCACACGU
B9: target 3 A5G (mixed)
RNA 1: B4 RNA 1
RNA 2: B4 RNA 2 with A44U, A47G, A51C
B10: target 3 insC 3' of 8,insC 3' of 5 (mixed)
RNA 1: B4 RNA 1
RNA 2: B8 RNA 2 with C44U, G45C, U47C, C48A, A49C
B11: target 3 insA 3' of 22,insA 3' of 21 (mixed)
RNA 1: B4 RNA 1
RNA 2: GGGAAUGGAUCCACAUCUACGAAUUCGUUUAUAUGAUCUGAAAUAUUCAGGUCUGCAGAUCGGAAGAGCACACGU
B12: target 3 G4C,A9G (mixed)
RNA 1: B4 RNA 1
RNA 2: B4 RNA 2 with A43G, A44U, G48C, A51C
B13: target 3 insU 3' of 11,insU 3' of 5 (mixed)
RNA 1: B4 RNA 1
RNA 2: B8 RNA 2 with A43U, C44A, G45U, U47C, C48A, A49U
B14: target 3 C1G,A5G (mixed)
RNA 1: B4 RNA 1
RNA 2: B4 RNA 2 with A44U, A47G, A51G
B15: target 3 G3C,U7C (mixed)
RNA 1: B4 RNA 1
RNA 2: B4 RNA 2 with A44U, U45C, G49C, A51C
B16: target 3 U8C,A11C (mixed)
RNA 1: B4 RNA 1
RNA 2: B4 RNA 2 with A41C, A44C, A51C
B17: target 3 insC 3' of 5,insA 3' of 3 (mixed)
RNA 1: B4 RNA 1
RNA 2: B8 RNA 2 with C44U, G45U, U46C, U47A, A49G, G51A
B18: target 3 complement block 4-8 (mixed)
RNA 1: B4 RNA 1
RNA 2: B4 RNA 2 with U45A, C46G, A47U, G48C, A51C
B19: target 3 C1G,A12U (mixed)
RNA 1: B4 RNA 1
RNA 2: B4 RNA 2 with A40U, A44U, A51G
B20: target 3 insC 3' of 7,insG 3' of 7 (mixed)
RNA 1: B4 RNA 1
RNA 2: B8 RNA 2 with C44U, G45U, U46C, U47G
B21: target 3 A12U (mixed)
RNA 1: B4 RNA 1
RNA 2: B4 RNA 2 with A40U, A44U, A51C
B22: target 3 U2G,A13G (mixed)
RNA 1: B4 RNA 1
RNA 2: B4 RNA 2 with A39G, A44U, U50G, A51C
B23: target 3 C6A,U8C (mixed)
RNA 1: B4 RNA 1
RNA 2: B4 RNA 2 with A44C, C46A, A51C
B24: target 3 insG 3' of 9,insU 3' of 4 (mixed)
RNA 1: B4 RNA 1
RNA 2: B8 RNA 2 with C44G, G45U, U47C, C48A, A49G, G50U
B25: target 3 C1A,U7G (mixed)
RNA 1: B4 RNA 1
RNA 2: B4 RNA 2 with A44U, U45G
B26: target 3 insC 3' of 11,insA 3' of 7 (mixed)
RNA 1: B4 RNA 1
RNA 2: B8 RNA 2 with U42C, A43U, C44A, G45U, U47A
B27: target 3 insU 3' of 14,insC 3' of 3 (mixed)
RNA 1: B4 RNA 1
RNA 2: B8 RNA 2 with A39U, U42A, A43U, C44A, G45U, U47C, C48A, A49G, G51C
B28: target 3 G4U,A5U (mixed)
RNA 1: B4 RNA 1
RNA 2: B4 RNA 2 with A44U, A47U, G48U, A51C
B29: target 3 U8A (mixed)
RNA 1: B4 RNA 1
RNA 2: B4 RNA 2 with A51C
B30: target 3 insU 3' of 11,insC 3' of 5 (mixed)
RNA 1: B4 RNA 1
RNA 2: B8 RNA 2 with A43U, C44A, G45U, U47C, C48A, A49C
B31: target 3 insC 3' of 8,insA 3' of 8 (mixed)
RNA 1: B4 RNA 1
RNA 2: B8 RNA 2 with C44U, G45C, U46A
B32: target 3 insC 3' of 9,insA 3' of 8 (mixed)
RNA 1: B4 RNA 1
RNA 2: B8 RNA 2 with G45U, U46A

Each binder was assayed against T1, EsCas13d, nuclease-dead (assay: crRNA (strand 1, pre-loaded); Mg2+; 40 mM Tris-HCl pH 7.5, 150 mM NaCl, 6 mM MgCl2, 1 mM DTT, 0.1% Tween-20, 0.2 mg/ml BSA; 25 C; 10 min per concentration, then washed). Conditions: tags: His6-TwinStrep-SUMO cleaved; N-terminal SNAP kept (SNAP-Surface 488); label: 3' end held by stalled T7 RNA polymerase.

Binder	Kd [nM]
B1	20.8 ± 1.6
B2	17.4 ± 1
B3	38 ± 5
B4	68 ± 17.5
B5	106 ± 49.5
B6	29.3 ± 2.3
B7	20.6 ± 3.3
B8	118 ± 50
B9	20.9 ± 1.8
B10	74.5 ± 9.5
B11	31.9 ± 4.5
B12	43.5 ± 6.5
B13	64 ± 13
B14	55 ± 22
B15	64 ± 12
B16	57 ± 14

Binder	Kd [nM]
B17	7.35 ± 0.5
B18	51.5 ± 5.5
B19	63 ± 18
B20	16.8 ± 1.45
B21	73.5 ± 19.5
B22	73.5 ± 29
B23	34.9 ± 3.6
B24	74.5 ± 19
B25	24.5 ± 6
B26	65 ± 19
B27	71 ± 28
B28	25.2 ± 3.6
B29	58.5 ± 7.5
B30	81.5 ± 12.5
B31	76.5 ± 19
B32	43.9 ± 7.35
